T1: MMP9 catalytic domain lacking the fibronectin-like domain (MMP9CAT, residues 107-215 and 391-443) (human, UniProt P14780 107-215; P14780 391-443, conjugated to DyLight-650 for the yeast display sorting and flow cytometry)
T1 construct: human MMP9 catalytic domain, first stretch, residues 107-215 (before the fibronectin-like domain, which is left out); human MMP9 catalytic domain, second stretch, residues 391-443 (after the fibronectin-like domain); In the functional rows the full-length MMP9 secreted by MCF-7-MMP9 cells is meant; source: gift from Irit Sagi (Weizmann Institute of Science), purified
T1 chain (looked up): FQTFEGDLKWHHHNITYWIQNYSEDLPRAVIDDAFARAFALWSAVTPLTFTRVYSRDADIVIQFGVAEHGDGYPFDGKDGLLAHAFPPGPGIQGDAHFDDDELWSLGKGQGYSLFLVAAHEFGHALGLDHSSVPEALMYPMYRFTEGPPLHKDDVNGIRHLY

T2: MMP1 catalytic domain (MMP1CAT) (UniProt P03956 100-269)
T2 construct: catalytic domain of MMP1 (collagenase); source: purified as previously described [66, 91]
T2 sequence (looked up): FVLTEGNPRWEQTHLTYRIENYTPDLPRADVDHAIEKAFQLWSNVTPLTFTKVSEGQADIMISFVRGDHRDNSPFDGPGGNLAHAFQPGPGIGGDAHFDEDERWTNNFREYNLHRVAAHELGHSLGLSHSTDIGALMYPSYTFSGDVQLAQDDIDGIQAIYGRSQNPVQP


Assays:
[1] = target: T3, MMP14 catalytic domain (MMP14CAT, residues 112-292) (human, UniProt P50281 112-292, conjugated to DyLight-488 for the yeast display sorting and flow cytometry); assay: enzyme inhibition assay (fluorogenic substrate, fit to Morrison's tight binding equation); 0.0075 nM MMP14CAT or MMP9CAT (MMP1CAT, MMP10CAT: concentration not stated) incubated with 0.4-25 nM or 1.5-500 nM inhibitor for 1 h at 37 C in TCNB buffer (50 mM Tris-HCl pH 7.5, 100 mM NaCl, 5 mM CaCl2, 0.05% Brij), then 15 uM Mca-Pro-Leu-Gly-Leu-Dpa-Ala-Arg-NH2; Ki from the apparent Ki; mean of three experiments; details: both partners purified
T3 construct: human MMP14 catalytic domain, residues 112-292; In the functional rows the MMP14 of the cells (endogenous in U87MG, or pCMV MMP14 in MCF-7) is meant; source: E. coli BL-21 (DE3), pET3a, purified as previously described

[2] = target: T1, MMP9 catalytic domain lacking the …; assay: as above; details: both partners purified
[3] = target: T3, MMP14 catalytic domain (MMP14CAT, …); assay: cell-based or functional assay
[4] = target: T1, MMP9 catalytic domain lacking the …; assay: cell-based or functional assay
[5] = target: T2, MMP1 catalytic domain (MMP1CAT); assay: enzyme inhibition assay (fluorogenic substrate, fit to Morrison's tight binding equation); 0.0075 nM MMP14CAT or MMP9CAT (MMP1CAT, MMP10CAT: concentration not stated) incubated with 0.4-25 nM or 1.5-500 nM inhibitor for 1 h at 37 C in TCNB buffer (50 mM Tris-HCl pH 7.5, 100 mM NaCl, 5 mM CaCl2, 0.05% Brij), then 15 uM Mca-Pro-Leu-Gly-Leu-Dpa-Ala-Arg-NH2; Ki from the apparent Ki; mean of three experiments; details: both partners purified
[6] = target: T4, MMP10 catalytic domain (MMP10CAT) (UniProt P09238 99-263); assay: as above; details: both partners purified
T4 construct: catalytic domain of MMP10 (stromelysin); source: purified as previously described [66, 91]
T4 sequence (P09238 99-263): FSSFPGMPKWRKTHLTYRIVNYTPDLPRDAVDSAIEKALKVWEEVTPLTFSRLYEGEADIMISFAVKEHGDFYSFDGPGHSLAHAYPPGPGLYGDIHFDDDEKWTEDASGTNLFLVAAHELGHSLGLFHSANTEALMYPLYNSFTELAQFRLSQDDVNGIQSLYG

Binder	Ki [1] [nM]	Ki [2] [nM]	inhibition of MMP2 activation by MMP14 in U87MG cells (gelatin zymography of media, 100 nM inhibitor, 48 h) [3] [%]	inhibition of trans-well migration of MCF-7-MMP14 cells (100 nM inhibitor, 24 h) [3] [%]	inhibition of the gelatin-degrading activity of MMP9 from MCF-7-MMP9 supernatant (gelatin zymography, gel incubated with 100 nM inhibitor) [4] [%]	Ki [5] [nM]	Ki [6] [nM]
N-TIMP2WT, wild type N-terminal domain of the tissue inhibitor of metalloproteinase-2, soluble form (domain or fragment, UniProt P16035 27-153, looked up, limits worked out from the printed primers (forward primer encodes CSCSP, reverse primer ends at YQMGCE); also called wild-type N-TIMP-2; source: P. pastoris X33 (pPICZalphaA), secreted, purified (Ni-NTA, Superdex 75 SEC)) CSCSPVHPQQAFCNADVVIRAKAVSEKEVDSGNDIYGNPIKRIQYEIKQIKMFKGPEKDIEFIYTAPSSAVCGVSLDVGGKKEYLIAGKAEGDGKMHITLCDFIVPWDTLSTTQKKSLNHRYQMGCE	5 ± 1	0.5 ± 0.04	45	30	~86	0.7 ± 0.1	3.5 ± 0.8
N-TIMP2_(9_1), soluble form (designed binder, limits worked out from the printed primers (forward primer encodes CSCP, reverse primer ends at YQMGCE); source: P. pastoris X33 (pPICZalphaA), secreted, purified (Ni-NTA, Superdex 75 SEC)) CSCPPVHPQQAFCNADVVIRAKAVSEKEVDSGNDPYGWPIKRIQYEIKQIKMFKGPEKDIEFIYTAPNSAICGVSLDVGGKKEYLIAGKAEGDGKMMIKLCDFIVPWDTLSTTQKKSLNHRYQMGCE	240 ± 31	0.78 ± 0.02	–	–	~82	–	–
N-TIMP2_(9_13), soluble form (designed binder, limits worked out from the printed primers (forward primer encodes CSCP, reverse primer ends at YQMGCE); source: P. pastoris X33 (pPICZalphaA), secreted, purified (Ni-NTA, Superdex 75 SEC)) CSCPPVHPQQAFCNADVVIRAKAVSEKEVDSGNDPYGWPIKRIQYEIKQIKMFKGPEKDIEFIYTAPNSAVCGVSLDVGGKKEYLIAGKAEGDGKMKIKLCDFIVPWDTLSTTQKKSLNHRYQMGCE	832 ± 44	1.2 ± 0.007	–	–	~75	18 ± 8	40 ± 14
N-TIMP2_(14_17), soluble form (designed binder, limits worked out from the printed primers (forward primer encodes CSCD, reverse primer ends at YQMGCE); source: P. pastoris X33 (pPICZalphaA), secreted, purified (Ni-NTA, Superdex 75 SEC)) CSCDPVHPQQAFCNADVVIRAKAVSEKEVDSGNDLYGSPIKRIQYEIKQIKMFKGPEKDIEFIYTAPDSASCGVSLDVGGKKEYLIAGKAEGDGKMSIFLCDFIVPWDTLSTTQKKSLNHRYQMGCE	0.03 ± 0.003	3.58 ± 0.5	45	38	–	0.92 ± 0.15	3.2 ± 0.4
N-TIMP2_(14_18), soluble form (designed binder, limits worked out from the printed primers (forward primer encodes CSCK, reverse primer ends at YQMGCE); also called N-TMP2_(14_18); source: P. pastoris X33 (pPICZalphaA), secreted, purified (Ni-NTA, Superdex 75 SEC)) CSCKPVHPQQAFCNADVVIRAKAVSEKEVDSGNDLYGFPIKRIQYEIKQIKMFKGPEKDIEFIYTAPFSAVCGVSLDVGGKKEYLIAGKAEGDGKMEITLCDFIVPWDTLSTTQKKSLNHRYQMGCE	0.024 ± 0.005	1.25 ± 0.2	50	~50	–	–	–

Source: PMC6112833, “Combinatorial engineering of N-TIMP2 variants that selectively inhibit MMP9 and MMP14 function in the cell” (Oncotarget, 2018)
